Consider two molecules from patent US20140227251A1 (AbbVie / Abbott, published 2014).

The experiment has as its target T1, Human TNF-α (R&D Systems) (human, UniProt P01375 77-233, labeled with Alexa Fluor 647 in the FACS assays).
T1 construct: also called Alexa Fluor 647-labeled TNF-α; TNF-α-AF647
Description: surface plasmon resonance (Biacore).

Numbering of substitutions follows the chain as printed. Names and notes keep the numbering of the source.

T1 sequence (P01375 77-233 limits assumed): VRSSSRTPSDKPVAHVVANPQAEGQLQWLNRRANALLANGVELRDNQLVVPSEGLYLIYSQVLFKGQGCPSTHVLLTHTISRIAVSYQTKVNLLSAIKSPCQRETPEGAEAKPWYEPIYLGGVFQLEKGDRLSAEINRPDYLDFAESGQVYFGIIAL

B1: D2E7 combination variant Y32K/SS-R30I (antibody, V domains shown)
VH: not shown
VL: DIQMTQSPSSLSASVGDRVTITCRASQSIINYLSWYQQKPGKAPKLLIYAASTLQSGVPSRFSGSGSGTDFTLTISSLQPEDVATYYCQRYNRAPYTFGQGTKVEIK
notes: VL-SS backbone = G28S and A34S in CDR-L1 (Kabat); Expressed and purified variant antibody; also called Y2K in CDR-H1 with G5S, R7I and A11S in CDR-L1
For the molecule B1, the binding result is “binds”.

B2: D2E7 combination variant Y32K/SS-R30T (antibody, V domains shown)
VH: not shown
VL: B1 VL with I30T
notes: VL-SS backbone = G28S and A34S in CDR-L1 (Kabat); Expressed and purified variant antibody; also called Y2K in CDR-H1 with G5S, R7T and A11S in CDR-L1
On to B2, for which the binding result is “binds”.
